Reference: paper PMC12492669, “Malic enzyme-based system for transhydrogenation between nicotinamide cofactors” (Synthetic and Systems Biotechnology, 2025)

Key:
[1] = substrate: NC(=O)C1=CN([C@@H]2O[C@H](COP(=O)(O)OP(=O)(O)OC[C@H]3O[C@@H](n4cnc5c(N)ncnc54)[C@H](O)[C@@H]3O)[C@@H](O)[C@H]2O)C=CC1; assay: purified protein, by the assay type; design: initial rates at varied cofactor, absorbance at 340 nm, Michaelis-Menten fit, pH 7.5, 25 °C; conditions: pH 7.5; 25.0 °C
Experimental: (§1) For malic enzymes involved in oxidative decarboxylation, the solution contained 5 mM L-malate and 2 mM MgCl2. For malic enzymes involved in reductive carboxylation, the solution included 10 mM pyruvate, 30 mM NaHCO3 and 2 mM MgCl2. For DLDH∗ involved in pyruvate reduction, initial pyruvate concentration was 10 mM. All reactions were performed in 50 mM HEPES (pH 7.5) at 25 °C, with kinetic data fitted to the Michaelis-Menten equation via nonlinear regression using GraphPad Prism 10.0.2. All assays were performed in triplicate, and error bars show standard deviation. Enzyme activity assays of pure enzymes were conducted in a total volume of 0.1 mL. […] The enzyme activity was monitored by measuring the absorbance at 340 nm using a microplate spectrophotometer (Bio-Tek, VT, USA), with continuous absorbance tracking throughout the assay. One unit of pure enzyme activity was defined as the amount of enzyme required to catalyze the production of 1 μmol NADH, NCDH or NADPH per minute under the specified assay conditions. A molar absorption coefficient of 6220 M^−1 cm^−1 for NADH, NCDH or NADPH was used in the calculations.

[2] = substrate: NC(=O)C1=CN([C@@H]2O[C@H](COP(=O)(O)OP(=O)(O)OC[C@H]3O[C@@H](n4cnc5c(N)ncnc54)[C@H](OP(=O)(O)O)[C@@H]3O)[C@@H](O)[C@H]2O)C=CC1; assay: purified protein, by the assay type; design: initial rates at varied cofactor, absorbance at 340 nm, Michaelis-Menten fit, pH 7.5, 25 °C; conditions: pH 7.5; 25.0 °C
Experimental: as §1

[3] = substrate: NC(=O)c1ccc[n+]([C@@H]2O[C@H](COP(=O)(O)OP(=O)(O)OC[C@H]3O[C@@H](n4cnc5c(N)ncnc54)[C@H](OP(=O)(O)O)[C@@H]3O)[C@@H](O)[C@H]2O)c1; assay: purified protein, by the assay type; design: initial rates at varied cofactor, absorbance at 340 nm, Michaelis-Menten fit, pH 7.5, 25 °C; conditions: pH 7.5; 25.0 °C
Experimental: as §1

[4] = substrate: NC(=O)C1=CN([C@@H]2O[C@H](COP(=O)(O)OP(=O)(O)OC[C@H]3O[C@@H](n4ccc(N)nc4=O)[C@H](O)[C@@H]3O)[C@@H](O)[C@H]2O)C=CC1; assay: initial rates of pyruvate reduction, Michaelis-Menten fit; assay type: biochemical, Lactobacillus helveticus; conditions: 10 mM pyruvate, 50 mM HEPES pH 7.5, 25 °C, varied: cofactor
[5] = substrate: NC(=O)C1=CN([C@@H]2O[C@H](COP(=O)(O)OP(=O)(O)OC[C@H]3O[C@@H](n4cnc5c(N)ncnc54)[C@H](O)[C@@H]3O)[C@@H](O)[C@H]2O)C=CC1; assay: as above; assay type: biochemical, Lactobacillus helveticus; conditions: 10 mM pyruvate, 50 mM HEPES pH 7.5, 25 °C, varied: cofactor
[6] = substrate: NC(=O)C1=CN([C@@H]2O[C@H](COP(=O)(O)OP(=O)(O)OC[C@H]3O[C@@H](n4cnc5c(N)ncnc54)[C@H](OP(=O)(O)O)[C@@H]3O)[C@@H](O)[C@H]2O)C=CC1; assay: as above; assay type: biochemical, Lactobacillus helveticus; conditions: 10 mM pyruvate, 50 mM HEPES pH 7.5, 25 °C, varied: cofactor

| Protein | Km [1] | kcat [1] | kcat/Km [1] | Km [2] | kcat [2] | kcat/Km [2] | Km [3] | kcat [3] | kcat/Km [3] | Km [4] | Km [5] | Km [6] |
| --- | --- | --- | --- | --- | --- | --- | --- | --- | --- | --- | --- | --- |
| ME (Escherichia coli K-12) (protein, wild-type, recombinant) MEPKTKKQRSLYIPYAGPVLLEFPLLNKGSAFSMEERRNFNLLGLLPEVVETIEEQAERAWIQYQGFKTEIDKHIYLRNIQDTNETLFYRLVNNHLDEMMPVIYTPTVGAACERFSEIYRRSRGVFISYQNRHNMDDILQNVPNHNIKVIVVTDGERILGLGDQGIGGMGIPIGKLSLYTACGGISPAYTLPVVLDVGTNNQQLLNDPLYMGWRNPRITDDEYYEFVDEFIQAVKQRWPDVLLQFEDFAQKNAMPLLNRYRNEICSFNDDIQGTAAVTVGTLIAASRAAGGQLSEKKIVFLGAGSAGCGIAEMIISQTQREGLSEEAARQKVFMVDRFGLLTDKMPNLLPFQTKLVQKRENLSDWDTDSDVLSLLDVVRNVKPDILIGVSGQTGLFTEEIIREMHKHCPRPIVMPLSNPTSRVEATPQDIIAWTEGNALVATGSPFNPVVWKDKIYPIAQCNNAFIFPGIGLGVIASGASRITDEMLMSASETLAQYSPLVLNGEGMVLPELKDIQKVSRAIAFAVGKMAQQQGVAVKTSAEALQQAIDDNFWQAEYRDYRRTSI | 1080 ± 350 µM | 1.88 ± 0.35 s⁻¹ | 1740 M⁻¹ s⁻¹ | 520 ± 120 µM | 0.01 s⁻¹ | 20 M⁻¹ s⁻¹ | 11500 ± 1200 µM | 0.58 ± 0.05 s⁻¹ | 50 M⁻¹ s⁻¹ | – | – | – |
| DLDH∗ (D-lactate dehydrogenase, V152R/N213E mutant) (Lactobacillus helveticus; N213E/V152R) (protein, recombinant; only the V152R/N213E mutant tested; purification and tag not described in main text) TKVFAYAIRKDEEPFLNEWKEAHKDIDVDYTDKLLTPETAKLAKGADGVVVYQQLDYTADTLQALADAGVTKMSLRNVGVDNIDMDKAKELGFQITNVPVYSPNAIAEHAAIQAARVLRQDKRMDEKMAKRDLRWAPTIGREVRDQVVGVRGTGHIGQVFMRIMEGFGAKVIAYDIFKNPELEKKGYYVDSLDDLYKQADVISLHVPDVPAEVHMINDKSIAEMKDGVVIVNCSRGRLVDTDAVIRGLDSGKIFGFVMDTYEDEVGVFNKDWEGKEFPDKRLADLIDRPNVLVTPHTAFYTTHAVRNMVVKAFNNNLKLINGEKPDSPVALNKNKF | – | – | – | – | – | – | – | – | – | 71.1 µM | 4840 µM | 2110 µM |
